Data on 1 protein can be found in PMC3678129.

Substrate in this series: CCn1c(=NN=c2sc3cc(S(=O)(=O)O)ccc3n2CC)sc2cc(S(=O)(=O)O)ccc21
Briefly: purified protein. The settings on record: H2O2 25 mM (saturating), no added Ca2+, 100 mM Tris-HCl pH 7.0.

B1: Euphorbia characias latex peroxidase (ELP) (Euphorbia characias) (protein)
chain: QTKPPIVNGLSWTFYKSSCPKVESIIQKELKKLFKKDVEQAAGLLRLHFHDCFVLGCDGSVLLNGSAGGPSEQSELPNLSLRKQAFKIVNDLRALVHKECGPVVSCSDIVAIAARDSVVLTGGPKYDVPLGRRDGVKFAEVNATFEHLVGPTANVTTILAKLARKGLDTTDAVSLSGGHTIGIGHCTSFTERLYPSQDPTLDKTFANNLKRTCPNVNTENSTFLDLRTPNEFDNRYYVDLMNRQGLFTSDQDLYTDKRTRQIVIDFAVNQTLFYEKFIIGMIKMGQLEVVTGNQGEIRNDCSFRNSDNYLVSVTDEESGSSSELR
In general, Km refers to the substrate concentration at which the rate is half of its maximum. A word on the kcat: it is the maximal rate divided by the concentration of active sites. As usually defined, the kcat/Km is the turnover number divided by the Michaelis constant. For B1, the Km came out at 550 ± 20 µM, the kcat was determined as 170 ± 11 s⁻¹ and the specificity constant (kcat/Km) stood at 309000 M⁻¹ s⁻¹.
